Test results published in patent US20170096493A1 (EISAI R AND D MANAGEMENT, published 2017).
Each block holds one binder with its values, some of them ahead of it.

Columns and labels:
[1] = target: T1, Human Notch4-NRR domain Fc fusion protein (human, UniProt Q99466 1046-1445, limits assumed); experiment: SPR (Biacore); Notch4-NRR-Fc captured by another anti-Notch4 antibody on CM5, antibody injected
T1 construct: Expressed in a CHO cell line, used from culture supernatant; 1 is named; also called Human Notch4-NRR Fusion Protein; not shown: Fc
T1 sequence: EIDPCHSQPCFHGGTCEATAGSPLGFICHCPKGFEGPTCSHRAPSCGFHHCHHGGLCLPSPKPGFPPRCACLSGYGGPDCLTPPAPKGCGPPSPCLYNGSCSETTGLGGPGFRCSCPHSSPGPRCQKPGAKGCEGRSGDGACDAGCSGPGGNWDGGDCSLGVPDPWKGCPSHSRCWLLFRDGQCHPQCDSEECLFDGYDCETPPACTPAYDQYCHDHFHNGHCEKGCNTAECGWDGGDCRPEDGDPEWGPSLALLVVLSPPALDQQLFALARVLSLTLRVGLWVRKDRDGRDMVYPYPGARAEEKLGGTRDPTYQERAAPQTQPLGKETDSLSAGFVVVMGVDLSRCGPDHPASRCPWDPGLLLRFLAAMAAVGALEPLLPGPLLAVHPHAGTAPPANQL
Protocol: (§1) Kinetic analysis of further anti-Notch4 inhibitory humanized antibodies was carried out as follows. Human Notch4-NRR domain Fc fusion proteins were expressed with a CHO cell line. The antigen in the culture supernatant was captured by the anti-human Notch4 antibody fixed on a CM5 sensor chip that recognizes different epitopes of human Notch4. The humanized anti-human Notch4 antibody was then injected onto the sensor chip at various concentrations. The interaction and disassociation constants thereof were calculated according to manufacturer's instructions.

[2] = target: T1, Human Notch4-NRR domain Fc fusion …; experiment: SPR (Biacore) as for Table 30; Notch4-NRR-Fc captured, antibody injected; averaged, N=2
Protocol: as §1

[3] = target: Notch4 with a part of the intracellular domain substituted with GAL4 DNA binding domain, on b.end3 reporter …; experiment: cell-based or functional assay
[4] = target: T1, Human Notch4-NRR domain Fc fusion …; experiment: SPR (Biacore) as for Table 30; Notch4-NRR-Fc captured, antibody injected; averaged, N=5
Protocol: as §1

[5] = target: T1, Human Notch4-NRR domain Fc fusion …; experiment: SPR (Biacore) as for Table 30; Notch4-NRR-Fc captured, antibody injected; averaged, N=3
Protocol: as §1

[6] = target: T1, Human Notch4-NRR domain Fc fusion …; experiment: SPR (Biacore) as for Table 30; Notch4-NRR-Fc captured, antibody injected; averaged, N=1
Protocol: as §1

Kd [5]: 0.776 nM | koff [5]: 0.0015 s⁻¹ | kon [5]: 2.01e+06 M⁻¹ s⁻¹
B3: HA2L5(Lys-) (antibody, human IgG2, kappa)
heavy: EVQLVESGGGLVQPGGSLRLSCAASGFTFSSYGMSWVRQAPGKGLELVSTINSNGGRTYYANSVKGRFTISRDNSKNTLYLQMGSLRAEDMAVYYCARDQGFAYWGQGTLVTVSSASTKGPSVFPLAPCSRSTSESTAALGCLVKDYFPEPVTVSWNSGALTSGVHTFPAVLQSSGLYSLSSVVTVPSSNFGTQTYTCNVDHKPSNTKVDKTVERKCCVECPPCPAPPAAAPSVFLFPPKPKDTLMISRTPEVTCVVVDVSHEDPEVQFNWYVDGVEVHNAKTKPREEQFNSTFRVVSVLTVVHQDWLNGKEYKCKVSNKGLPAPIEKTISKTKGQPREPQVYTLPPSREEMTKNQVSLTCLVKGFYPSDIAVEWESNGQPENNYKTTPPMLDSDGSFFLYSKLTVDKSRWQQGNVFSCSVMHEALHNHYTQKSLSLSPG
light: DIQMTQSPSSLSASVGDRVTITCKASQDVGTAVAWYQQKPGKSPKLLIYWASTRHTGVPSRFSGSGSGTDFTLTISSLQPEDVATYFCQQYSSYPWTFGQGTKVEIKRTVAAPSVFIFPPSDEQLKSGTASVVCLLNNFYPREAKVQWKVDNALQSGNSQESVTEQDSKDSTYSLSSTLTLSKADYEKHKVYACEVTHQGLSSPVTKSFNRGEC
notes: Humanized IgG2 (V234A, G237A)/κ; also called No. 33

Kd [4]: 0.83 nM | koff [4]: 0.00162 s⁻¹ | kon [4]: 2.43e+06 M⁻¹ s⁻¹
B5: HA2L4(Lys-) (antibody, human IgG2, kappa)
heavy: EVQLVESGGGLVQPGGSLRLSCAASGFTFSSYGMSWVRQAPGKGLELVSTINSNGGRTYYANSVKGRFTISRDNSKNTLYLQMGSLRAEDMAVYYCARDQGFAYWGQGTLVTVSSASTKGPSVFPLAPCSRSTSESTAALGCLVKDYFPEPVTVSWNSGALTSGVHTFPAVLQSSGLYSLSSVVTVPSSNFGTQTYTCNVDHKPSNTKVDKTVERKCCVECPPCPAPPAAAPSVFLFPPKPKDTLMISRTPEVTCVVVDVSHEDPEVQFNWYVDGVEVHNAKTKPREEQFNSTFRVVSVLTVVHQDWLNGKEYKCKVSNKGLPAPIEKTISKTKGQPREPQVYTLPPSREEMTKNQVSLTCLVKGFYPSDIAVEWESNGQPENNYKTTPPMLDSDGSFFLYSKLTVDKSRWQQGNVFSCSVMHEALHNHYTQKSLSLSPG
light: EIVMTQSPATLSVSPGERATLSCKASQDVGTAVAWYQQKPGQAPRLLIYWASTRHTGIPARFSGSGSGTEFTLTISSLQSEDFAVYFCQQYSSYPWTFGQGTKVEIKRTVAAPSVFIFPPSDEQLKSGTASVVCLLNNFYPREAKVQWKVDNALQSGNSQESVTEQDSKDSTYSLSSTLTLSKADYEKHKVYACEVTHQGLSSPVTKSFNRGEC
notes: Humanized IgG2 (V234A, G237A)/κ; also called No. 32

Kd [5]: 1.78 nM | koff [5]: 0.00489 s⁻¹ | kon [5]: 2.72e+06 M⁻¹ s⁻¹
B8: HK1L5 (antibody, human IgG2, kappa, V domains shown)
VH: EVQLVESGGGLVQPGGSLRLSCAASGFTFSSYGMSWVRQAPGKGLEYVSTINSNGGRTYYPDSVKGRFTISRDNSKNTLYLQMGSLRAEDMAVYYCARDQGFAYWGQGTLVTVSS
VL: DIQMTQSPSSLSASVGDRVTITCKASQDVGTAVAWYQQKPGKSPKLLIYWASTRHTGVPSRFSGSGSGTDFTLTISSLQPEDVATYFCQQYSSYPWTFGQGTKVEIKR
notes: Humanized IgG2 (V234A, G237A)/κ; also called No. 10

Second part, the binder before the results:

B1: Antibody A (antibody, human IgG2, kappa)
heavy: EVQLVESGGGLVQPGGSLRLSCAASGFTFSSYGMSWVRQAPGKGLELVSTINSNGGRTYYPDSVKGRFTISRDNSKNTLYLQMGSLRAEDMAVYYCARDQGFAYWGQGTLVTVSSASTKGPSVFPLAPCSRSTSESTAALGCLVKDYFPEPVTVSWNSGALTSGVHTFPAVLQSSGLYSLSSVVTVPSSNFGTQTYTCNVDHKPSNTKVDKTVERKCCVECPPCPAPPAAAPSVFLFPPKPKDTLMISRTPEVTCVVVDVSHEDPEVQFNWYVDGVEVHNAKTKPREEQFNSTFRVVSVLTVVHQDWLNGKEYKCKVSNKGLPAPIEKTISKTKGQPREPQVYTLPPSREEMTKNQVSLTCLVKGFYPSDIAVEWESNGQPENNYKTTPPMLDSDGSFFLYSKLTVDKSRWQQGNVFSCSVMHEALHNHYTQKSLSLSPG
light: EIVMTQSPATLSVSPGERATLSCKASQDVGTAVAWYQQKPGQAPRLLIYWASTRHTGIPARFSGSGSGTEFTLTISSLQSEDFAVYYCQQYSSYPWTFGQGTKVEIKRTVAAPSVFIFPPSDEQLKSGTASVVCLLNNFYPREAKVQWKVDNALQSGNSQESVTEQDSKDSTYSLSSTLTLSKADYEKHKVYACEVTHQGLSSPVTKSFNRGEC
notes: Humanized IgG2 (V234A, G237A)/κ; also called HK2L3 (Lys-); HK2L3(Lys-)
Kd [1]: 0.555 nM | koff [1]: 0.000889 s⁻¹ | kon [1]: 1.62e+06 M⁻¹ s⁻¹ | Kd [2]: 0.395 nM | koff [2]: 0.00124 s⁻¹ | kon [2]: 5.05e+06 M⁻¹ s⁻¹ | % of Control (relative luminescence), Notch4-GAL4 luciferase reporter assay, antibody at 10 µg/ml [3]: 0.1 % of Control

B2: HK2L5(Lys-) (antibody, human IgG2, kappa)
heavy: EVQLVESGGGLVQPGGSLRLSCAASGFTFSSYGMSWVRQAPGKGLELVSTINSNGGRTYYPDSVKGRFTISRDNSKNTLYLQMGSLRAEDMAVYYCARDQGFAYWGQGTLVTVSSASTKGPSVFPLAPCSRSTSESTAALGCLVKDYFPEPVTVSWNSGALTSGVHTFPAVLQSSGLYSLSSVVTVPSSNFGTQTYTCNVDHKPSNTKVDKTVERKCCVECPPCPAPPAAAPSVFLFPPKPKDTLMISRTPEVTCVVVDVSHEDPEVQFNWYVDGVEVHNAKTKPREEQFNSTFRVVSVLTVVHQDWLNGKEYKCKVSNKGLPAPIEKTISKTKGQPREPQVYTLPPSREEMTKNQVSLTCLVKGFYPSDIAVEWESNGQPENNYKTTPPMLDSDGSFFLYSKLTVDKSRWQQGNVFSCSVMHEALHNHYTQKSLSLSPG
light: DIQMTQSPSSLSASVGDRVTITCKASQDVGTAVAWYQQKPGKSPKLLIYWASTRHTGVPSRFSGSGSGTDFTLTISSLQPEDVATYFCQQYSSYPWTFGQGTKVEIKRTVAAPSVFIFPPSDEQLKSGTASVVCLLNNFYPREAKVQWKVDNALQSGNSQESVTEQDSKDSTYSLSSTLTLSKADYEKHKVYACEVTHQGLSSPVTKSFNRGEC
notes: Humanized IgG2 (V234A, G237A)/κ; also called No. 36
Kd [4]: 0.617 nM | koff [4]: 0.00113 s⁻¹ | kon [4]: 1.93e+06 M⁻¹ s⁻¹

B4: Antibody F (antibody, human IgG2, kappa)
heavy: EVQLVESGGGLVQPGGSLRLSCAASGFTFSSYGMSWVRQAPGKGLELVSTINSNGGRTYYANSVKGRFTISRDNSKNTLYLQMGSLRAEDMAVYYCARDQGFAYWGQGTLVTVSSASTKGPSVFPLAPCSRSTSESTAALGCLVKDYFPEPVTVSWNSGALTSGVHTFPAVLQSSGLYSLSSVVTVPSSNFGTQTYTCNVDHKPSNTKVDKTVERKCCVECPPCPAPPAAAPSVFLFPPKPKDTLMISRTPEVTCVVVDVSHEDPEVQFNWYVDGVEVHNAKTKPREEQFNSTFRVVSVLTVVHQDWLNGKEYKCKVSNKGLPAPIEKTISKTKGQPREPQVYTLPPSREEMTKNQVSLTCLVKGFYPSDIAVEWESNGQPENNYKTTPPMLDSDGSFFLYSKLTVDKSRWQQGNVFSCSVMHEALHNHYTQKSLSLSPG
light: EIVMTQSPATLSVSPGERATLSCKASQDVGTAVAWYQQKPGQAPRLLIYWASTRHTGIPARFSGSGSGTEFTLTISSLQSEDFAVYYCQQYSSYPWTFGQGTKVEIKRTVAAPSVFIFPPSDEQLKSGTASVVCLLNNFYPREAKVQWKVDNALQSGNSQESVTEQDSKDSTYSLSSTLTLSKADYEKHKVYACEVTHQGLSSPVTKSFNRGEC
notes: Humanized IgG2 (V234A, G237A)/κ; also called HA2L3 (Lys-); HA2L3(Lys-)
Kd [1]: 0.982 nM | koff [1]: 0.00136 s⁻¹ | kon [1]: 1.55e+06 M⁻¹ s⁻¹ | Kd [2]: 0.434 nM | koff [2]: 0.000894 s⁻¹ | kon [2]: 3.5e+06 M⁻¹ s⁻¹ | % of Control (relative luminescence), Notch4-GAL4 luciferase reporter assay, antibody at 10 µg/ml [3]: 17 % of Control

B6: HA1L3 (antibody, human IgG2, kappa, V domains shown)
VH: EVQLVESGGGLVQPGGSLRLSCAASGFTFSSYGMSWVRQAPGKGLEYVSTINSNGGRTYYANSVKGRFTISRDNSKNTLYLQMGSLRAEDMAVYYCARDQGFAYWGQGTLVTVSS
VL: EIVMTQSPATLSVSPGERATLSCKASQDVGTAVAWYQQKPGQAPRLLIYWASTRHTGIPARFSGSGSGTEFTLTISSLQSEDFAVYYCQQYSSYPWTFGQGTKVEIKR
notes: Humanized IgG2 (V234A, G237A)/κ; also called No. 23
Kd [6]: 14.7 nM | koff [6]: 0.524 s⁻¹ | kon [6]: 3.57e+07 M⁻¹ s⁻¹

B7: HA1L4 (antibody, human IgG2, kappa, V domains shown)
VH: EVQLVESGGGLVQPGGSLRLSCAASGFTFSSYGMSWVRQAPGKGLEYVSTINSNGGRTYYANSVKGRFTISRDNSKNTLYLQMGSLRAEDMAVYYCARDQGFAYWGQGTLVTVSS
VL: EIVMTQSPATLSVSPGERATLSCKASQDVGTAVAWYQQKPGQAPRLLIYWASTRHTGIPARFSGSGSGTEFTLTISSLQSEDFAVYFCQQYSSYPWTFGQGTKVEIKR
notes: Humanized IgG2 (V234A, G237A)/κ; also called No. 24
Kd [6]: 9.54 nM | koff [6]: 0.113 s⁻¹ | kon [6]: 1.18e+07 M⁻¹ s⁻¹

B9: HA1L1 (antibody, human IgG2, kappa, V domains shown)
VH: EVQLVESGGGLVQPGGSLRLSCAASGFTFSSYGMSWVRQAPGKGLEYVSTINSNGGRTYYANSVKGRFTISRDNSKNTLYLQMGSLRAEDMAVYYCARDQGFAYWGQGTLVTVSS
VL: DIQMTQSPSSLSASVGDRVTITCKASQDVGTAVAWYQQKPGKVPKLLIYWASTRHTGVPSRFSGSGSGTDFTLTISSLQPEDVATYYCQQYSSYPWTFGQGTKVEIKR
notes: Humanized IgG2 (V234A, G237A)/κ; also called No. 21
Kd [6]: 453 nM | koff [6]: 0.0279 s⁻¹ | kon [6]: 61500 M⁻¹ s⁻¹
